Reference: article PMC7764042

Target: recombinant human interferon beta-1a (human), P01574
Assay: SPR; IFN-β immobilised on ProteOn GLH chip by amine coupling; Ca^2+-loaded S100 as analyte (0.25–5 µM S100A1, 0.5–5 µM S100A4/A6, 5 µM other S100); 25 °C; 10 mM HEPES, 150 mM NaCl, 0.01% TWEEN 20, pH 7.4, 1 mM CaCl2; heterogeneous ligand model
Conditions: remark: other sources report otherwise

Kd: > 10 µM
B1: recombinant human S100B, P04271 1-92 (natural protein)
chain: MSELEKAMVALIDVFHQYSGREGDKHKLKKSELKELINNELSHFLEEIKEQEVVDKVMETLDNDGDGECDFQEFMAFVAMVTTACHEFFEHE
